Experimental findings from patent US20250122303A1, “TREATMENT AND PREVENTION OF CANCER USING HER3 ANTIGEN-BINDING MOLECULES” (Hummingbird Bioscience Pte. Ltd., priority 2021, published 2025) are described below.

The target in test [1] is human HER3 expressed on cells (HEK293 HER3 O/E cells) (human) (UniProt P21860). Put plainly: flow cytometry, HEK293 cells overexpressing human HER3, 20 ug/ml antibody, FITC anti-Fc secondary; same antibody on WT HEK293: 1.68. A general note: Flow cytometry measures light scatter and fluorescence of single cells or particles in a stream.
The target is the same in test [2]. Put plainly: flow cytometry, HEK293 cells overexpressing human HER3, 20 ug/ml antibody, FITC anti-Fc secondary; same antibody on WT HEK293: 0.07.
The next test has as its target moFcgRIV. Put plainly: Bio-Layer Interferometry (determined as described in Example 7). On the technique in general: Biolayer interferometry detects binding as a change in optical thickness at a sensor tip.
A further test has as its target FcRn (human) (UniProt P55899). The test is described as above.
The target of a further test is moFcRn (mouse) (UniProt Q61559). The test is described as above.
Test [3] concerns the target His-tagged FcγRIIIa (V158) (human) (UniProt P08637). The description is as above.
Another test has as its target FcgRIIIA (F158) (human) (UniProt P08637). The description is as above.
In test [4] the target is human HER3 expressed on cells (HEK293 HER3 O/E cells) (human) (UniProt P21860). Kind of test: flow cytometry on HEK293T HER3 O/E cells, 10 ug antibody as printed, FITC-conjugated anti-Fc secondary.

One may read the Kd as the free concentration of one partner at which half of the binding sites on the other are occupied at equilibrium, for simple one-to-one binding. The low end stands for higher affinity, the high end for lower affinity.

Consider Isotype (antibody), for which the % Parent (HE3 positive) in test [1] was found to be 13.9%. The % Parent (HER3 positive) in test [2] turned out to be 0.12%.
Take LJM716 (antibody): the Kd with moFcgRIV was 701 nM; in the test with FcRn (human), 16.5 nM; with moFcRn (mouse) it was 12.8 nM; in test [3], 705 nM; with FcgRIIIA (F158) (human), 5380 nM.
On to hIgG1 Isotype (antibody), for which the % Parent (HER3 positive) in test [4] is 0.18%.
